# Source: patent US20220143148A1, “COMPOSITIONS AND METHODS FOR MODULATING CGRP SIGNALING TO REGULATE INTESTINAL INNATE LYMPHOID CELLS” (The Broad Institute, Inc., priority 2019, published 2022)
# B1: OVA (protein, UniProt P01012 2-386, looked up)
# Ovalbumin: GSIGAASMEFCFDVFKELKVHHANENIFYCPIAIMSALAMVYLGAKDSTRTQINKVVRFDKLPGFGDSIEAQCGTSVNVHSSLRDILNQITKPNDVYSFSLASRLYAEERYPILPEYLQCVKELYRGGLEPINFQTAADQARELINSWVESQTNGIIRNVLQPSSVDSQTAMVLVNAIVFKGLWEKAFKDEDTQAMPFRVTEQESKPVQMMYQIGLFRVASMASEKMKILELPFASGTMSMLVLLPDEVSGLEQLESIINFEKLTEWTSSNVMEERKIKVYLPRMKMEEKYNLTSVLMAMGITDVFSSSANLSGISSAESLKISQAVHAAHAEINEAGREVVGSAEAGVDAASVSEEFRADHPFLFCIKHIATNAVLFFGRCVSP
# Test system: small intestinal immune cells
# Assay: Droplet-based scRNA-seq of small intestinal immune cells (LP and PP), OVA vs PBS, clustering and differential expression
# Assay type: in vivo, mouse
# Details: PP, cluster ID 8
# Excerpt: To comprehensively characterize small intestinal immune cells, Applicants generated scRNA-Seq profiles for 58,067 immune cells collected from lamina propria (LP) and Peyer's patch (PP) regions at steady state and after induction of a type 2 inflammatory reaction to ovalbumin (OVA) (Brandt et al., 2003) (FIGS. 1A and 8A). To ensure sufficient representation of rare cells, Applicants combined a normalization strategy—removing by flow sorting either a portion of IgD+ naïve B cells, which are the most abundant cell type in PPs, or all CD19+ and CD3+ T cells (FIG. 8B, Methods)—with profiling of a sufficiently large number of cells number (P>0.99 to recover at least 15 cells from each cluster, Methods) by massively parallel scRNA-seq (Haber et al., 2017) (Methods). Applicants obtained 36,797 and 21,270 high quality cells passing initial filtering (Methods) from PP and LP regions, respectively.
# Overall, Applicants annotated 27 cell subsets across the two compartments, spanning T cells, B cells, ILCs, dendritic cells (DCs), myeloid cells and stromal cells, in frequencies ranging from 0.07% to 14%. Briefly, Applicants first partitioned the cells from the PP regions by unsupervised clustering (Methods) into 46 clusters, retained the 97% of cells that were robustly assigned cell identities in each cluster (Methods), assigned the cells from the LP regions to the 46 clusters using a classifier (Methods), and visualized the data with scvis (Ding et al., 2018), a deep generative model-based method (FIGS. 1B and 8C, Methods). Next, Applicants identified genes that were differentially expressed between the cells in each cluster and the remaining cells (Table 1, Methods), as well as between pairs of clusters (Table 2), to elucidate identities of similar cell types/states. Applicants excluded from downstream analysis clusters mostly consisting of contaminants from epithelium, likely doublets, or cells with a small number of Unique Molecular Identifiers (UMIs) (FIGS. 1C and 8D), or lacking distinct markers (Methods). Altogether, Applicants retained 27 clusters spanning 85% of the cells and each associated with distinct marker genes (FIG. 8E, Methods).
# To induce allergic reaction to OVA, 6 to 7 weeks old mice were sensitized twice, two weeks apart, with 50 μg of OVA plus 1 mg of aluminum potassium sulfate adjuvant via intraperitoneal injection. Two weeks later, mice were orally administered with 50 mg of OVA on every other day for a total of five times. 1 μg of α-CGRP peptide was administered simultaneously when indicated. Mice were deprived of food for 3-4 hours in cages with wood chip bedding for limiting antigen degradation in the stomach before each intragastric challenge.
# Isolation of cells from Peyer's patches (PPs). Peyer's patches (PPs) were carefully dissected from the small intestine under a stereo microscope using a fine scissor, pierced once with a fine forcep. Tissues were digested in freshly made digestion buffer (RPMI-1640 containing 100 μg/ml Liberase™ and 50 μg/ml DNase I at 37° C. on a roto-mixer. After 15 min, tissues were very gently mixed using a 1 ml pipette. The supernatant was collected and added to ice-cold MACS buffer (pH 7.4; PBS plus 2% FCS and 2 mM EDTA). Pre-warmed (37° C.) fresh digestion buffer was added to the remaining tissues. After rotation at 37° C. for 15 min, the mixture was vigorously mixed using a 1 ml pipette for 1 min. Supernatants from the two steps were combined and passed through 70 μm filters and stained for FACS (below).
# Isolation of cells from the lamina propria (LP). The small intestines were opened longitudinally and washed in ice-cold PBS. For scRNA-seq, roughly 0.5 cm of fragments from each of the distal, middle and proximal regions without visible PPs were collected. Epithelial cells were dissociated by tissue rotation in pre-warmed (37° C.) PBS containing 10 mM EDTA at 37° C. for 15 min, followed by additional incubation on ice for 15 min. Tissues were then shaken vigorously. […]
molecule,measurement,setting,value
B1,Rab35 percentage of expressing cells in OVA-treated group,,0.207
same,Rac2 percentage of expressing cells in OVA-treated group,,0.97
same,Rel percentage of expressing cells in OVA-treated group,,0.139
same,Rgs1 percentage of expressing cells in OVA-treated group,,0.699
same,Rnf125 percentage of expressing cells in OVA-treated group,,0.167
same,Rnf157 percentage of expressing cells in OVA-treated group,,0.188
same,Rora percentage of expressing cells in OVA-treated group,,0.161
same,Rrad percentage of expressing cells in OVA-treated group,,0.191
same,Rsrp1 percentage of expressing cells in OVA-treated group,,0.559
same,Samd9l percentage of expressing cells in OVA-treated group,,0.176
same,Samsn1 percentage of expressing cells in OVA-treated group,,0.324
same,Sh2d1a percentage of expressing cells in OVA-treated group,,0.488
same,Sik1 percentage of expressing cells in OVA-treated group,,0.161
same,Skil percentage of expressing cells in OVA-treated group,,0.207
same,Sla percentage of expressing cells in OVA-treated group,,0.335
same,Slfn2 percentage of expressing cells in OVA-treated group,,0.408
same,Sp100 percentage of expressing cells in OVA-treated group,,0.537
same,Taf10 percentage of expressing cells in OVA-treated group,,0.347
same,Tfam percentage of expressing cells in OVA-treated group,,0.19
same,Tgif1 percentage of expressing cells in OVA-treated group,,0.305
same,Tm6sf1 percentage of expressing cells in OVA-treated group,,0.454
same,Traf1 percentage of expressing cells in OVA-treated group,,0.464
same,Tsc22d3 percentage of expressing cells in OVA-treated group,,0.664
same,Tuba4a percentage of expressing cells in OVA-treated group,,0.191
same,Txndc5 percentage of expressing cells in OVA-treated group,,0.239
same,Txnip percentage of expressing cells in OVA-treated group,,0.398
same,Ube2s percentage of expressing cells in OVA-treated group,,0.478
same,VgIl4 percentage of expressing cells in OVA-treated group,,0.47
same,Vps37b percentage of expressing cells in OVA-treated group,,0.79
same,Zc3h12a percentage of expressing cells in OVA-treated group,,0.182
same,Zfp36l2 percentage of expressing cells in OVA-treated group,,0.84
same,Zfp512 percentage of expressing cells in OVA-treated group,,0.446
same,AW112010 LN (average fold change),OVA vs PBS,0.208
same,AY036118 LN (average fold change),OVA vs PBS,−0.339
same,Actr3 LN (average fold change),OVA vs PBS,0.315
same,Alyref LN (average fold change),OVA vs PBS,−0.597
same,Amd1 LN (average fold change),OVA vs PBS,−0.426
same,Arf4 LN (average fold change),OVA vs PBS,−0.186
same,Arfrp1 LN (average fold change),OVA vs PBS,0.609
same,Arl6ip1 LN (average fold change),OVA vs PBS,0.367
same,Arl6ip5 LN (average fold change),OVA vs PBS,0.344
same,Arpc5l LN (average fold change),OVA vs PBS,0.383
same,Arrb2 LN (average fold change),OVA vs PBS,0.295
same,Ash1l LN (average fold change),OVA vs PBS,0.491
same,B2m LN (average fold change),OVA vs PBS,0.159
same,Bcl2 LN (average fold change),OVA vs PBS,0.286
same,Bcl2a1b LN (average fold change),OVA vs PBS,−0.507
same,Bcl2l11 LN (average fold change),OVA vs PBS,−0.208
same,Bhlhe40 LN (average fold change),OVA vs PBS,−0.159
same,Cap1 LN (average fold change),OVA vs PBS,0.235
same,Ccr2 LN (average fold change),OVA vs PBS,0.330
same,Cd47 LN (average fold change),OVA vs PBS,0.262
same,Cd69 LN (average fold change),OVA vs PBS,−0.386
same,Cd74 LN (average fold change),OVA vs PBS,−0.187
same,Cdk2ap1 LN (average fold change),OVA vs PBS,−0.673
same,Cdkn1a LN (average fold change),OVA vs PBS,−0.980
same,Cdv3 LN (average fold change),OVA vs PBS,−0.281
same,Cks2 LN (average fold change),OVA vs PBS,−0.601
same,Clec2d LN (average fold change),OVA vs PBS,0.391
same,Coq10b LN (average fold change),OVA vs PBS,−0.426
same,Crem LN (average fold change),OVA vs PBS,−0.681
same,Csrp1 LN (average fold change),OVA vs PBS,−0.437
same,Ctla2a LN (average fold change),OVA vs PBS,0.372
same,Cxcr4 LN (average fold change),OVA vs PBS,0.544
same,Ddx21 LN (average fold change),OVA vs PBS,−0.379
same,Defa24 LN (average fold change),OVA vs PBS,−0.967
same,Dgat1 LN (average fold change),OVA vs PBS,−0.352
same,Dusp1 LN (average fold change),OVA vs PBS,−0.244
same,Eef2 LN (average fold change),OVA vs PBS,0.257
same,Egr1 LN (average fold change),OVA vs PBS,−0.640
same,Eif4a2 LN (average fold change),OVA vs PBS,0.300
same,Emb LN (average fold change),OVA vs PBS,−0.223
same,Fam105a LN (average fold change),OVA vs PBS,0.376
same,Fasl LN (average fold change),OVA vs PBS,0.296
same,Fcer1g LN (average fold change),OVA vs PBS,0.170
